Legend:
[1] = system: His-PhbF (Herbaspirillum seropedicae SmR1); assay: EMSA; conditions: apparent; 100 ng calf thymus DNA; tetramer concentration; EMSA: 10 mM Tris-HCl pH 7.5, 80 mM NaCl, 1 mM EDTA, 10 mM beta-mercaptoethanol, 5% glycerol, 20 nM DNA, 100 ng calf thymus DNA in 10 uL, 30 C 5 min; footprint: …
[2] = molecular target: the molecule itself; assay: SEC; gel filtration chromatography of purified His-PhbF; apparent molecular weight 104.3 kDa; conditions not told in the main text (Additional file 1, Figure S2)

Q: How did the Kd [1] turn out when phaP1 promoter was run?
A: 150 nM

Q: phbF promoter (EMSA) was tested. Which Kd [1] did it give?
A: 450 nM

B1: His-PhbF (H. seropedicae SmR1 PhbF protein fused to an N-terminal six-histidine tag) (natural protein, Herbaspirillum seropedicae SmR1, UniProt D8J0C9 1-188, looked up)
chain: MTTAKNSADRLIKKYPNRRLYDTQTSSYITLTDVKQLVLDNEEFTVVDAKSGDDLTRSILLQIILEEESHGVPMFSSGALSQIIRYYGHAMQGMMGNYLEKNIQTFIDIQNKLAENSKGFYEGKPFSPEMWTQFMNVQGPMMQGMMSNYIEQSKNLFIQMQEQMQSQTKNMFGTFPFGNPGAGPDQKK
notes: the phbF gene was amplified from the genome and cloned into pET-28a (pKADO3); The pET-28a vector residues between the His tag and the protein are not described; also called His-tag PhbF protein; source: E. coli BL21(DE3) carrying pKADO3, purified (Hi-Trap Chelating Ni2+ column); not shown: His6, N-terminal, kept
Q: How did the “stoichiometry N” value [2] turn out when B1 was run?
A: 4

From paper PMC3206438, “Identification and characterization of PhbF: A DNA binding protein with regulatory role in the PHB metabolism of Herbaspirillum seropedicae SmR1” (BMC Microbiology, 2011)
